Assay results from patent publication US20220033501A1 (SHANGHAI PHARMAEXPLORER, published 2022).

T1: monkey TIM-3 on CHOK1 stable cell line (CHOK1-cTIM-3) (monkey)
T1 chain: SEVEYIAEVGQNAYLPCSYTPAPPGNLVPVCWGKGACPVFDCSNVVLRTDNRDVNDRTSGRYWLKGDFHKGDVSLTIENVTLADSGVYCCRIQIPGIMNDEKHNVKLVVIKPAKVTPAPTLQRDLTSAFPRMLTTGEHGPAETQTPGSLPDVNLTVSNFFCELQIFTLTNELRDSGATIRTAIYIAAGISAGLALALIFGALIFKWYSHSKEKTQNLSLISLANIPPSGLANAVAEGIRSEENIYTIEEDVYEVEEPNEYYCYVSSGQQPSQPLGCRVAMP

T2: murine TIM-3 extracellular domain protein with hFc tag (mTIM-3-hFc) (mouse, UniProt Q8VIM0 29-191)
T2 construct: also called mouse TIM-3 extracellular domain protein; not shown: human IgG Fc fragment (hFc) of the pCpC vector
T2 chain: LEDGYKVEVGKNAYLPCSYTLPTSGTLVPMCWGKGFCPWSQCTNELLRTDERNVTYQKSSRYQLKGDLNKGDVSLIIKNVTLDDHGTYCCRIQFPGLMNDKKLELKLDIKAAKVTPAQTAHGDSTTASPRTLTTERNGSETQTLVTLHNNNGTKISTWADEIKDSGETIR

T3: monkey TIM-3 extracellular domain protein with hFc tag (cTIM-3-hFc) (monkey)
T3 construct: not shown: human IgG Fc fragment (hFc) of the pCpC vector
T3 chain: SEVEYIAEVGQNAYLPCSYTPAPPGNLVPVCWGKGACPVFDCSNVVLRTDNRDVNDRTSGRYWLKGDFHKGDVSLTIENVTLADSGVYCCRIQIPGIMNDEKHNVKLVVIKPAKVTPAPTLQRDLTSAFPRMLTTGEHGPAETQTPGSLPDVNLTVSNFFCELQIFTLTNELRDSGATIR


What was measured:
[1] = target: T1, monkey TIM-3 on CHOK1 stable cell line …; assay: FACS, CHOK1-cTIM-3 cells, 8 nM antibody
[2] = target: T1, monkey TIM-3 on CHOK1 stable cell line …; assay: FACS, CHOK1-cTIM-3 cells, 40 nM antibody
[3] = target: T1, monkey TIM-3 on CHOK1 stable cell line …; assay: FACS, CHOK1-cTIM-3 cells, 0.013 nM antibody
[4] = target: T2, murine TIM-3 extracellular domain …; assay: ELISA, coated mouse TIM-3 ECD protein, 0 nM antibody
[5] = target: T2, murine TIM-3 extracellular domain …; assay: ELISA, coated mouse TIM-3 ECD protein, 0.0007 nM antibody
[6] = target: T2, murine TIM-3 extracellular domain …; assay: ELISA, coated mouse TIM-3 ECD protein, 0.0667 nM antibody
[7] = target: T3, monkey TIM-3 extracellular domain …; assay: ELISA, coated monkey TIM-3 ECD protein, 0.0001 nM antibody
[8] = target: T3, monkey TIM-3 extracellular domain …; assay: ELISA, coated monkey TIM-3 ECD protein, 66.667 nM antibody

Row | Mean fluorescence intensity [1] | Mean fluorescence intensity [2] | Mean fluorescence intensity [3] | OD450 [4] | OD450 [5] | OD450 [6] | OD450 [7] | OD450 [8] | Binder
1 | 475 | 462 | 14.8 | 0.22 | 0.21 | 0.22 | 0.14 | 3.27 | 18D2H2 fully human TIM-3 antibody (human IgG4, kappa) (antibody, V domains shown) VH: EVQLVESGGDLVQPGGSLRLSCAASGFTFSTYWMTWVRQAPGRGLEWVANIKQDGSAKYYVDSVKGRFTLSRDDAKNSLYLQMNSLRAEDTAVYYCARGSNWFDYWGQGTLVTVSS VL: ETVMTQSPATLSVSPGERATLSCRANQNVYSNLAWYQQKPGQAPRLLIYDASTRATGFPARFSGSGSGTEFTLTISSLQSEDFAVYYCQQYNNWPLTFGGGTKVEIK
2 | 349 | 337 | 14.8 | 0.24 | 0.23 | 0.24 | 0.17 | 3.38 | 39E5H1 fully human TIM-3 antibody (human IgG4, kappa) (antibody, V domains shown) VH: EVQLVESGGGLVQPGGSLRLSCAASGFTFSSYWMSWVRQAPGKGLEWVANIKRGGSERYYVDSVKGRFTISGDNAKNSVYLQMNSLRAEDTAVYYCARGSNWFDPWGQGTLVTVSS VL: ETVMTQSPAILSVSPGERATLSCRASQSVYSNLAWYQQKLGQAPRLLIYDASTRATGIPARFSGSGSGTEFTLTISSLQSEDFAVYYCQQYNNWPITFGQGTRLEIK
3 | 340 | 336 | 12.7 | 0.24 | 0.24 | 0.25 | 0.17 | 3.39 | 34B6D8 fully human TIM-3 antibody (human IgG4, kappa) (antibody, V domains shown) VH: EVQLVESGGGLVQPGGSLRLSCAASGFTFSTYWMTWVRQAPGKRLEWVANIKQGGGDKYYVDSVKGRFTISTDNAKNSLYLQMNSLRAEDTAVYYCARGSNWFDPWGQGTLVTVSS VL: EIVMTQSPATLSMSPGERATLSCRASQSVYDNLAWYQQKPGQAPRLLIYGASTRATGIPARFSGSGSGTEFTLTISSLQSEDFALYYCQQYTHWPITFGQGTRLEIK
